“Also recorded” adds a separate entry of the source.
Molecular target: T1, purified α3β1-integrin (Homo sapiens, UniProt P05556+P26006)
T1 construct: purchased Chemicon International (Temecula, Calif.)
Assay: Solid phase dot-ELISA with α3β1-integrin
Format: binding
Conditions: α3β1-integrin 750 ng/ml, increasing concentrations of immobilized suPAR or peptide
Description: FIGS. 1A-H show the interaction between α5β1-integrin and immobilized uPAR and uPAR-derived synthetic peptides through solid-phase dot-ELISA. […] Bound integrin was detected with anti-α5 integrin antibody followed by goat anti-rabbit IgG (H+L) HRP conjugated secondary antibody and developed with enhanced chemiluminescence (“ECL”). FIG. 1B is a graph showing that binding of integrin to suPAR is saturable. SuPAR (1.5 μg) was immobilized on nitrocellulose membrane in triplicates, incubated with 0, 0.1, 0.5, 1, 2, and 4 μg/ml of α5β1-integrin and tested for integrin binding as in FIG. 1A. The dots were scanned with NIH Image. Mean and SE are shown. […] Peptides representing regions located in each of the three uPAR-domains were immobilized, incubated with α5β1-integrin, and analyzed as in FIG. 1A. Only peptide 240-248 binds α5β1-integrin. FIG. 1D is a graph showing that peptide 240-248 inhibits integrin binding to suPAR. The α5β1-integrin (750 ng/ml) was pre-incubated for 15 min at room temperature with 100 fold molar excess of 240-248 or 17-24 peptides, or with no peptide (Control) and the mixtures were applied to immobilized suPAR (1.5 μg), 2 dots per mixture, and developed as in FIG. 1A. […] Bound integrins were detected with the appropriate previously titrated antibodies followed by goat anti-rabbit IgG (H+L) HRP conjugated secondary antibody and detection with ECL. […]

T1 sequence (P26006 33-872 limits assumed): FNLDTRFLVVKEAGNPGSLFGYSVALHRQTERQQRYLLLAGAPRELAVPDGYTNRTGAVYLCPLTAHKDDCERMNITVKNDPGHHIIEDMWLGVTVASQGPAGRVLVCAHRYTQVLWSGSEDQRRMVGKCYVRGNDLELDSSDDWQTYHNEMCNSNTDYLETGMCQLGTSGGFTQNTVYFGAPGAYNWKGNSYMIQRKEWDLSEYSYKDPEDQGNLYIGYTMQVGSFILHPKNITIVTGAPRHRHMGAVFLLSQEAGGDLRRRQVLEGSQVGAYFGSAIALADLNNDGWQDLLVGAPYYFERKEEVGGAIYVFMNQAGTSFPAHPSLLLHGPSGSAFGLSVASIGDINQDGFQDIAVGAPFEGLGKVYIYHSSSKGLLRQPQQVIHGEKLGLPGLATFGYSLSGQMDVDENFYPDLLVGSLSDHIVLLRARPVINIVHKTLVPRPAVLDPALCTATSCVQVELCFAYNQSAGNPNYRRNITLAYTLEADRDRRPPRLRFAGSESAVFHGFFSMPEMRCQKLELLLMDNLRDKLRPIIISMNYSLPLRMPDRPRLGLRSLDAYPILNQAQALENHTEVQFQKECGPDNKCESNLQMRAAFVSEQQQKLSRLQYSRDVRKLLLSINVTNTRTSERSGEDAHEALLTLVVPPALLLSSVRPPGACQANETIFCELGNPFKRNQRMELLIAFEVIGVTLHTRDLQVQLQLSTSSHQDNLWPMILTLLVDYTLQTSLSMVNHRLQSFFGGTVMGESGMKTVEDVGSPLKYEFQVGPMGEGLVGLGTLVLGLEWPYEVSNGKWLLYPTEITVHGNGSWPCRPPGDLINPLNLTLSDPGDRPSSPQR
T1 sequence (P26006 873-1051 limits assumed): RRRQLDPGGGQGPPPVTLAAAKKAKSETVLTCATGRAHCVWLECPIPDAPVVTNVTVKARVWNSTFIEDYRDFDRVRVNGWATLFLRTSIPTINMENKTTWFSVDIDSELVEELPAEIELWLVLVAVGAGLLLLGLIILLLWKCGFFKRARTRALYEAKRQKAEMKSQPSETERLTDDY
T1 sequence (P05556 21-798): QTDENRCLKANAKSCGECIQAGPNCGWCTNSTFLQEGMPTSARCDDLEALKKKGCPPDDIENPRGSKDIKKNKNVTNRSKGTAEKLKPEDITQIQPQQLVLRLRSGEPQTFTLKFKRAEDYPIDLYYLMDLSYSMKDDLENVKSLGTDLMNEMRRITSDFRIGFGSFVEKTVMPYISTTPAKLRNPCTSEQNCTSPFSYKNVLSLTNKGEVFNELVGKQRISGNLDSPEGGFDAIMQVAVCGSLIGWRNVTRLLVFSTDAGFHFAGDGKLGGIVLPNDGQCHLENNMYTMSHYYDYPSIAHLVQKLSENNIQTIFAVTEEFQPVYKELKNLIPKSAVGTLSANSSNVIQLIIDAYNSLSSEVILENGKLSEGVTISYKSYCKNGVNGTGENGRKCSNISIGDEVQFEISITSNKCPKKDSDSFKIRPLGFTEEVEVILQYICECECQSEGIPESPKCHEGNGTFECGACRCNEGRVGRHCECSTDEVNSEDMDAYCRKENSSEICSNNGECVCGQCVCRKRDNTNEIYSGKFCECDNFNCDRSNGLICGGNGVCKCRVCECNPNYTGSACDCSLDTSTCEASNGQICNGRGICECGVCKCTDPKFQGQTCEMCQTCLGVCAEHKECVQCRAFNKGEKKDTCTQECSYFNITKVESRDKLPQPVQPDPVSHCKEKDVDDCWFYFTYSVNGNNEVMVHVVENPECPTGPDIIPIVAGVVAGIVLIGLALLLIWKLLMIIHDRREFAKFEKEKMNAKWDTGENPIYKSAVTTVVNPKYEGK

Which “α3β1-integrin binding compared to α5β1-integrin” value does the source give for “peptide 240-248: synthetic uPAR-derived peptide, domain III residues 240-248: GCATASMCQ (SEQ ID NO:9)” here?
The value was “dots of much lesser intensity; also recorded: bound only weakly”.
